Assay results as given in article PMC8336515, “OTUD7B Deubiquitinates LSD1 to Govern Its Binding Partner Specificity, Homeostasis, and Breast Cancer Metastasis” (Advanced Science, 2021).

Target: recombinant LSD1 (UniProt O60341 1-852)
Assay: pull-down; recombinant proteins in vitro (Figure S1F); GST fusion on glutathione-sepharose beads, NETN buffer, 4 °C for 2 h
Details: both partners purified

- binding result: binds
B1: recombinant OTUD7B (enzyme)
chain: MTLDMDAVLSDFVRSTGAEPGLARDLLEGKNWDVNAALSDFEQLRQVHAGNLPPSFSEGSGGSRTPEKGFSDREPTRPPRPILQRQDDIVQEKRLSRGISHASSSIVSLARSHVSSNGGGGGSNEHPLEMPICAFQLPDLTVYNEDFRSFIERDLIEQSMLVALEQAGRLNWWVSVDPTSQRLLPLATTGDGNCLLHAASLGMWGFHDRDLMLRKALYALMEKGVEKEALKRRWRWQQTQQNKESGLVYTEDEWQKEWNELIKLASSEPRMHLGTNGANCGGVESSEEPVYESLEEFHVFVLAHVLRRPIVVVADTMLRDSGGEAFAPIPFGGIYLPLEVPASQCHRSPLVLAYDQAHFSALVSMEQKENTKEQAVIPLTDSEYKLLPLHFAVDPGKGWEWGKDDSDNVRLASVILSLEVKLHLLHSYMNVKWIPLSSDAQAPLAQPESPTASAGDEPRSTPESGDSDKESVGSSSTSNEGGRRKEKSKRDREKDKKRADSVANKLGSFGKTLGSKLKKNMGGLMHSKGSKPGGVGTGLGGSSGTETLEKKKKNSLKSWKGGKEEAAGDGPVSEKPPAESVGNGGSKYSQEVMQSLSILRTAMQGEGKFIFVGTLKMGHRHQYQEEMIQRYLSDAEERFLAEQKQKEAERKIMNGGIGGGPPPAKKPEPDAREEQPTGPPAESRAMAFSTGYPGDFTIPRPSGGGVHCQEPRRQLAGGPCVGGLPPYATFPRQCPPGRPYPHQDSIPSLEPGSHSKDGLHRGALLPPPYRVADSYSNGYREPPEPDGWAGGLRGLPPTQTKCKQPNCSFYGHPETNNFCSCCYREELRRREREPDGELLVHRF
notes: OTUD7B; cDNA in pGEX4T1 (GST) or pET21b (His); also called GST-OTUD7B; His-OTUD7B; source: recombinant; GST fusions expressed in BL21 and purified by glutathione-sepharose beads; not shown: GST or His (GST-OTUD7B and His-OTUD7B were both cloned)
